Reference: patent publication US20240391991A1, “MODULATION OF WNT SIGNALLING IN PULMONARY DISORDERS” (Surrozen Operating, Inc., priority 2021, published 2024)
Entries after “also recorded” stand apart in the source; their conditions may differ.

Experiments:
human AT2 cell organoid [1] = assay: Human AT2 organoid size (diameter, microscopy); type: cell-based; settings: in the absence of RSPO; for human AT2 cell organoid growth as organoid size (diameter): C59 present, FIG. 6; for numbers of organoids and organoid size by microscopy: FIG. 8
human AT2 cell organoid [2] = assay: Human AT2 cell organoid growth, CellTiter Glo assay; type: cell-based; settings: for effectiveness on human AT2 organoid expansion versus Chir99021: 10 nM concentration; for effectiveness on human AT2 organoid expansion versus Chir99021 / human AT2 organoid culture outgrowth/viability (CellTiter Glo): in the absence of RSPO, FIG. 8; for human AT2 organoid culture outgrowth/viability (CellTiter Glo): SWAP alone; for self-renewal and expansion of human AT2 cells: summary of organoid results
Protocol: For ex vivo studies, 3D organoid cultures (see, e.g., Zacharias, W. et al. (2018) Nature 555:251-257 and Barkauskas et al. (2017) Development 144:986-997) were constructed by combining primary human lung fibroblasts from healthy, pulmonary fibrosis, or COPD patients with alveolar epithelial cells (AT2 and AEP cells) from patients. Organoids were cultured in SAGM medium with growth factor free Matrigel. The Wnt antagonist and agonist were added in a sequential or concurrent manner to determine the effect on the fibroblast/myofibroblast proliferation, matrix production, alveolar epithelial cell proliferation and AT1/AT2 cell fate trans-differentiation. Alveolar organoids can also be cultured directly from human distal lung cells including purified AT2 cells (Kobayashi et al., (2020) supra).
(§1) In all of the AT2 cell organoid experiments, the Wnt signaling inhibitor, C59, was used to prevent endogenous secretion of Wnt ligands. […] AT2 cell organoid growth was assessed with the CellTiter Glo assay.

[3] = test system: mouse AT2 organoid cultures; assay: Mouse AT2 cell organoid expansion, CellTiter-Glo assay; type: cell-based; settings: SWAP in combination with RSPO2; C59 present; FIG. 9
Protocol: as §1

[4] = test system: acute bleomycin mouse model; assay: Bleomycin-induced acute lung injury (fibrosis) mouse model; type: in vivo; settings: agent alone
From the text: The acute lung injury (single bleomycin treatment; FIG. 1) and chronic intermittent/low dose bleomycin mouse models (FIG. 2) were used to determine the therapeutic effects of Wnt antagonist and agonist (administered concurrently or sequentially or individually) in combination with or without anti-fibrotic drugs (e.g., pirfenidone and nintedanib) to assess effects on anti-fibrotic and improved respiratory functions (see, e.g., Degryse, A. et al. (2010) Am J Physiol Lung Cell Mol Physiol. 299:442-52). Improvement of fibrosis was observed upon treatment with a WNT agonist, SWAP5 (see, e.g., FIG. 7, FIG. 10). Specifically, bleomycin was administered intratracheally to the mice at day 0, and animals were treated twice weekly with an agonist approach—combination of SWAP5 (FZD1,2,5,7,8 multi-FZD-specific SWAP) and RSPO2 (combo)—for two weeks starting at day 7 until termination at day 21. […] Improvement of fibrosis was also observed upon treatment with a Wnt agonist or the Wnt signaling enhancer RSPO2 alone (FIG. 10).

Row | Molecule | human AT2 cell organoid growth as organoid size (diameter) (human AT2 cell organoid [1]) | numbers of organoids and organoid size by microscopy (human AT2 cell organoid [1]) | effectiveness on human AT2 organoid expansion versus Chir99021 (human AT2 cell organoid [2]) | human AT2 organoid culture outgrowth/viability (CellTiter Glo) (human AT2 cell organoid [2]; C59 present) | self-renewal and expansion of human AT2 cells (human AT2 cell organoid [2]) | expansion of mouse AT2 organoid cultures (CellTiter-Glo) [3] | percentage of lung area affected by fibrosis ([4]; dosed four times between week 1 and week 3, vs anti-GFP, FIGS. 10-11) | fibrosis score (Modified Ashcroft) ([4]; dosed four times between week 1 and week 3, vs anti-GFP, FIGS. 10-12) | percent of ACTA2 in the lung ([4]; FIG. 11D) | immune cell infiltration / inflammation (H&E based pathology scores) ([4]; FIG. 11E) | IL6 in lung tissue (Meso Scale Discovery) ([4]; FIG. 11F) | IL1B in lung tissue (Meso Scale Discovery) ([4]; FIG. 11G) | GRO/CXCL1 in lung tissue (Meso Scale Discovery) ([4]; FIG. 11H) | cytokine levels ([4]; lung tissue, FIG. 11) | human AT2 cell organoid growth (CellTiter Glo), compared with Chir99021 (human AT2 cell organoid [2]; SWAP in combination with RSPO1, C59 present, FIGS. 5A and 5B)
1 | SWAP2: FZD1,2,7-specific Wnt agonist; anti-FZD antibody with LRP6 binder; heavy/light chains SEQ ID NO: 5 and 6 (antibody) heavy: EVQLVESGGGLVQPGGSLRLSCAASGFTFTSYYISWVRQAPGKGLEWVAEISPYSGSTYYADSVKGRFTISADTSKNTAYLQMNSLRAEDTAVYYCALRARPPIRLHPRGSVMDYWGQGTLVTVSSGGGGSGGGGSGGGGSEVQLVESGGGLVQPGGSLRLSCAASGFNISSSYIHWVRQAPGKGLEWVAYIYSSYGSTYYADSVKGRFTISADTSKNTAYLQMNSLRAEDTAVYYCARASWYALDYWGQGTLVTVSSASTKGPSVFPLAPSSKSTSGGTAALGCLVKDYFPEPVTVSWNSGALTSGVHTFPAVLQSSGLYSLSSVVTVPSSSLGTQTYICNVNHKPSNTKVDKKVEPKSCDKTHTCPPCPAPEAAGGPSVFLFPPKPKDTLMISRTPEVTCVVVDVSHEDPEVKFNWYVDGVEVHNAKTKPREEQYNSTYRVVSVLTVLHQDWLNGKEYKCKVSNKALGAPIEKTISKAKGQPREPQVYTLPPSREEMTKNQVSLTCLVKGFYPSDIAVEWESNGQPENNYKTTPPVLDSDGSFFLYSKLTVDKSRWQQGNVFSCSVMHEALHNHYTQKSLSLSPGK light: DIQMTQSPSSLSASVGDRVTITCRASQDVSTAVAWYQQKPGKAPKLLIYSASFLYSGVPSRFSGSGSGTDFTLTISSLQPEDFATYYCQQSYTTPPTFGQGTKVEIKGGGGSGGGGSGGGGSDIQMTQSPSSLSASVGDRVTITCRASQSVSSAVAWYQQKPGKAPKLLIYSASSLYSGVPSRFSGSRSGTDFTLTISSLQPEDFATYYCQQYWYGVAPITFGQGTKVEIKRTVAAPSVFIFPPSDEQLKSGTASVVCLLNNFYPREAKVQWKVDNALQSGNSQESVTEQDSKDSTYSLSSTLTLSKADYEKHKVYACEVTHQGLSSPVTKSFNRGEC | expand AT2 organoids | increased numbers of organoids and organoid size | more effective than the small molecule Wnt pathway activator, Chir99021 | induced human AT2 organoid culture outgrowth/viability as assessed by the CellTiter Glo assay in a concentration-dependent manner; also recorded: induce human AT2 cell organoid expansion alone (in the absence of RSPO) in a dose-dependent manner | promotes the self-renewal and expansion of human AT2 cells | led to the expansion of mouse AT2 organoid cultures | – | – | – | – | – | – | – | – | –
2 | SWAP3: FZD5,8-specific Wnt agonist (FZD5,8 and LRP6); heavy/light chains SEQ ID NO: 7 and 8 (antibody) heavy: EVQLVESGGGLVQPGGSLRLSCAASGFTFTSYYISWVRQAPGKGLEWVAEISPYSGSTYYADSVKGRFTISADTSKNTAYLQMNSLRAEDTAVYYCALRARPPIRLHPRGSVMDYWGQGTLVTVSSGGGGSGGGGSGGGGSEVQLVESGGGLVQPGGSLRLSCAASGFNISYSYIHWVRQAPGKGLEWVASIYSSSGSTSYADSVKGRFTISADTSKNTAYLQMNSLRAEDTAVYYCARGAIDYWGQGTLVTVSSASTKGPSVFPLAPSSKSTSGGTAALGCLVKDYFPEPVTVSWNSGALTSGVHTFPAVLQSSGLYSLSSVVTVPSSSLGTQTYICNVNHKPSNTKVDKKVEPKSCDKTHTCPPCPAPEAAGGPSVFLFPPKPKDTLMISRTPEVTCVVVDVSHEDPEVKFNWYVDGVEVHNAKTKPREEQYNSTYRVVSVLTVLHQDWLNGKEYKCKVSNKALGAPIEKTISKAKGQPREPQVYTLPPSREEMTKNQVSLTCLVKGFYPSDIAVEWESNGQPENNYKTTPPVLDSDGSFFLYSKLTVDKSRWQQGNVFSCSVMHEALHNHYTQKSLSLSPGK light: DIQMTQSPSSLSASVGDRVTITCRASQDVSTAVAWYQQKPGKAPKLLIYSASFLYSGVPSRFSGSGSGTDFTLTISSLQPEDFATYYCQQSYTTPPTFGQGTKVEIKGGGGSGGGGSGGGGSDIQMTQSPSSLSASVGDRVTITCRASQSVSSAVAWYQQKPGKAPKLLIYSASSLYSGVPSRFSGSRSGTDFTLTISSLQPEDFATYYCQQWYSSGHVLITFGQGTKVEIKRTVAAPSVFIFPPSDEQLKSGTASVVCLLNNFYPREAKVQWKVDNALQSGNSQESVTEQDSKDSTYSLSSTLTLSKADYEKHKVYACEVTHQGLSSPVTKSFNRGEC | expand AT2 organoids | increased numbers of organoids and organoid size | more effective than the small molecule Wnt pathway activator, Chir99021 | induced human AT2 organoid culture outgrowth/viability as assessed by the CellTiter Glo assay in a concentration-dependent manner; also recorded: induce human AT2 cell organoid expansion alone (in the absence of RSPO) in a dose-dependent manner | promotes the self-renewal and expansion of human AT2 cells | led to the expansion of mouse AT2 organoid cultures | reduced the fibrosis score, the percentage of lung affected, immune cell infiltration, and cytokine levels in the acute bleomycin mouse model in a dose-dependent manner; also recorded: reduce the area of the lung that is fibrotic | reduced the fibrosis score, the percentage of lung affected, immune cell infiltration, and cytokine levels in the acute bleomycin mouse model in a dose-dependent manner; also recorded: lower the severity of fibrosis | reduction of fibrosis | reduced the fibrosis score, the percentage of lung affected, immune cell infiltration, and cytokine levels in the acute bleomycin mouse model in a dose-dependent manner; also recorded: reduction in inflammation | reduction in cytokines | reduction in cytokines | reduction in cytokines | reduced the fibrosis score, the percentage of lung affected, immune cell infiltration, and cytokine levels in the acute bleomycin mouse model in a dose-dependent manner | –
3 | SWAP1: FZD-1,2,5,7,8-specific Wnt agonist; anti-FZD antibody with LRP6 binder; heavy/light chains SEQ ID NO: 3 and 4 (antibody) heavy: EVQLVESGGGLVQPGGSLRLSCAASGFTFTSYYISWVRQAPGKGLEWVAEISPYSGSTYYADSVKGRFTISADTSKNTAYLQMNSLRAEDTAVYYCALRARPPIRLHPRGSVMDYWGQGTLVTVSSGGGGSGGGGSGGGGSEVQLVESGGGLVQPGGSLRLSCAASGFTFSHYTLSWVRQAPGKGLEWVSVISGDGSYTYYADSVKGRFTISSDNSKNTLYLQMNSLRAEDTAVYYCARNFIKYVFANWGQGTLVTVSSASTKGPSVFPLAPSSKSTSGGTAALGCLVKDYFPEPVTVSWNSGALTSGVHTFPAVLQSSGLYSLSSVVTVPSSSLGTQTYICNVNHKPSNTKVDKKVEPKSCDKTHTCPPCPAPEAAGGPSVFLFPPKPKDTLMISRTPEVTCVVVDVSHEDPEVKFNWYVDGVEVHNAKTKPREEQYNSTYRVVSVLTVLHQDWLNGKEYKCKVSNKALGAPIEKTISKAKGQPREPQVYTLPPSREEMTKNQVSLTCLVKGFYPSDIAVEWESNGQPENNYKTTPPVLDSDGSFFLYSKLTVDKSRWQQGNVFSCSVMHEALHNHYTQKSLSLSPGK light: DIQMTQSPSSLSASVGDRVTITCRASQDVSTAVAWYQQKPGKAPKLLIYSASFLYSGVPSRFSGSGSGTDFTLTISSLQPEDFATYYCQQSYTTPPTFGQGTKVEIKGGGGSGGGGSGGGGSDIELTQPPSVSVAPGQTARISCSGDNIGSFYVHWYQQKPGQAPVLVIYDKSNRPSGIPERFSGSNSGNTATLTISGTQAEDEADYYCQSYANTLSLVFGGGTKLTVLGQPKAAPSVTLFPPSSEELQANKATLVCLISDFYPGAVTVAWKADSSPVKAGVETTTPSKQSNNKYAASSYLSLTPEQWKSHRSYSCQVTHEGSTVEKTVAPTECS | – | – | – | – | promotes the self-renewal and expansion of human AT2 cells | led to the expansion of mouse AT2 organoid cultures | – | – | – | – | – | – | – | – | enhancement of human AT2 cell organoid growth that surpassed the growth observed upon treatment with the small molecule Wnt signaling activator, Chir99021; also recorded: more effective than the small molecule, CHIR99021
